Data taken from the supplement of paper PMC10724198.
± gives the standard deviation of the averaged measurements.

tested on: Saccharomyces cerevisiae; assay: protein stability index of tFT-peptide fusion (C-terminal peptide) (PSI (0-1 scale)); higher = more stable (slower turnover); details: genetic background: wild type; temperature: 30 C
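Further: PSI is a weighted mean of sequencing reads over stability bins, variants kept only with over 10 reads, mCherry proximal and sfGFP distal, peptide attached via GGGS linker.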

Sequence	protein stability index
GVCGRWWTCMGV	0.722 ± 0.061
PPPPPPPPPPSL	0.746 ± 0.061
RIEEQMIKNEWE	0.6932 ± 0.0047
WGSVGVVGLFSG	0.69 ± 0.057
KTKERARTISRV	0.721 ± 0.024
ALRFLISCRLLD	0.62622 ± 0.00026
PPHHSLSPPLPP	0.6607 ± 0.0014
RGEARDARGLEW	0.763 ± 0.12
GCWHFWQFFCHY	0.678 ± 0.024
APPLSLPPRLFL	0.69 ± 0.035
SGAGGGGWWGGV	0.731 ± 0.011
PLPPVVSFALSR	0.661 ± 0.061
LPSPSSTLSPLR	0.674 ± 0.059
VTISLGVGGGMQ	0.725 ± 0.048
EVRGKSVTIFVR	0.57 ± 0.025
LRLSSFSFSRLS	0.701 ± 0.16
KIEHEGIKTGGT	0.757 ± 0.16
GVWVMSGPVTRR	0.716 ± 0.053
AFRCGGAPGDFA	0.654 ± 0.0094
EKIRSNIIKLEE	0.64 ± 0.097
APPPPFCHAPTS	0.6366 ± 0.00082
HGGSFSAFWYLL	0.676 ± 0.027
VGVGRGALRWYG	0.704 ± 0.014
LLFCFIPCVFWG	0.5096 ± 0.0029
PRTRLPPQLRLP	0.694 ± 0.02
LAYIFTPVRTTG	0.799 ± 0.26

Sequence	protein stability index
LAHAGSRPPTPG	0.6754 ± 0.0016
GQCQERRKGGCA	0.577 ± 0.0063
PLLVLPGPLLTP	0.668 ± 0.097
QKKRKKPGKWKS	0.662 ± 0.022
GIVFVFGGGLAL	0.702 ± 0.078
ITSQLWGVPLPY	0.7134 ± 0.0032
GGSSEKVLCIWR	0.7246 ± 0.0014
SGTVRSTPPHPP	0.664 ± 0.0072
SGSGVLVGCLGS	0.68 ± 0.038
TSIREVPAPCSH	0.756 ± 0.032
PVPLTPRCPSVT	0.6 ± 0.019
VAAKAHPLASMS	0.617 ± 0.11
ECSGGGCGQRVG	0.733 ± 0.056
VSVWLGSARWVG	0.628 ± 0.0086
KNCYPTKKIAIK	0.638 ± 0.016
SSTALAFAPYLL	0.6894 ± 0.005
PFPSYLSPLGPS	0.734 ± 0.037
FRCPGFYVVIFP	0.582 ± 0.0092
GGEGPKGDRGRA	0.649 ± 0.018
GHFWVFGIPFFR	0.6547 ± 0.0017
RSDPLPKTSAAY	0.644 ± 0.12
APLLAPPPPSRT	0.642 ± 0.009
HLSDAGSPDGAN	0.628 ± 0.063
NKTKKKKKKKRG	0.659 ± 0.061
LWALPTPPPSGH	0.67 ± 0.1
MPGYLIRPPVIS	0.709 ± 0.0078

Sequence	protein stability index
LLTGCVPVLIRK	0.707 ± 0.093
RSPPPRAPPPSV	0.645 ± 0.06
RPSPPPTPPGPH	0.656 ± 0.039
RKFGQRQKRECN	0.7085 ± 0.0066
WGRGETLCSSVP	0.72 ± 0.011
KKKNKKQNKAKK	0.6396 ± 0.0023
IRRHNVELSGYL	0.641 ± 0.022
YSLVKITHGRKK	0.684 ± 0.015
PLPPPPPPPPRL	0.678 ± 0.0073
FYSLFLPRPFLS	0.579 ± 0.024
TNGYWVIACKKF	0.672 ± 0.069
NKKDHTLTKKRT	0.661 ± 0.063
ERKQKKKTKEKY	0.682 ± 0.026
VAGRGLGCPGRI	0.632 ± 0.018
GGFGSCVGHVLG	0.735 ± 0.077
IFVCRCFGFFGG	0.681 ± 0.04
HPASPPTPPPLP	0.663 ± 0.014
WWEGSFRVGAVR	0.638 ± 0.008
PHPNHRGPKGAN	0.686 ± 0.032
VCMSLVRGEAGG	0.657 ± 0.011
LAVWSVVGGGVV	0.637 ± 0.008
HGVTPFFSSSPR	0.632 ± 0.012
VGIQQSVVVRLE	0.6685 ± 0.0034
GESLSLVRIWRK	0.625 ± 0.13
EDIIRPWSMFQE	0.718 ± 0.043
DGRLNVCCYPSC	0.689 ± 0.15

Sequence	protein stability index
AYEGVYAVVANV	0.616 ± 0.014
SMASQLSQRGSD	0.641 ± 0.076
DGTSKDSKWYMN	0.747 ± 0.088
KEQKKKLKKKHG	0.594 ± 0.099
PFCLPRPVRGVL	0.728 ± 0.1
NAGHTGPYADGN	0.669 ± 0.043
VKTLNQKCIKKN	0.719 ± 0.062
SIVIGGSWGRSW	0.711 ± 0.052
GWGWDAVGVGGP	0.711 ± 0.0074
LHFGSSSSRDFM	0.709 ± 0.027
KKNLITRQNPLS	0.69004 ± 0.0003
RPPLLSPTRTLP	0.707 ± 0.15
AESLGLNYGSVY	0.657 ± 0.05
PFRFSPFPLPLP	0.695 ± 0.023
ALFNEVFRSLLL	0.712 ± 0.054
LPSSCVLHMFFP	0.7111 ± 0.0024
SPPPTPPGLLLL	0.694 ± 0.012
PQESRAWTLSSA	0.713 ± 0.05
TRKESNTIHNEQ	0.688 ± 0.014
RILPSPVSAGGF	0.62 ± 0.026
LKDQFKNKNKSS	0.531 ± 0.04
VACFASRVLCRG	0.503 ± 0.024
FGTSLLPLPPPD	0.601 ± 0.025
